This is an account of results in PMC4440519, “Cloning and characterization of farnesyl pyrophosphate synthase from the highly branched isoprenoid producing diatom Rhizosolenia setigera” (Scientific Reports, 2015).

Usually Km stands for the substrate concentration at which the rate is half of its maximum. By kcat is commonly meant the maximal rate divided by the concentration of active sites.

Substrate in the data set “purified protein”: C=C(C)CCO[P@@](=O)(O)OP(=O)(O)O
The data set is described as follows: purified protein. Particulars: DMAPP 50 μM constant, 35 mM Tris-HCl pH 7.5, 10 mM MgCl2, 4 mM DTT, 30 °C.

Substrate in data set [1]: CC(C)=CCOP(=O)(O)OP(=O)(O)O
The data set is described as follows: LC/MS quantification of FPP formed. The class given is biochemical, Sundstroemia setigera. The conditions noted are these: IPP 50 μM constant, 35 mM Tris-HCl pH 7.5, 10 mM MgCl2, 4 mM DTT, 30 °C.

Substrate in data set [2]: CC(C)=CCC/C(C)=C/COP(=O)(O)OP(=O)(O)O
The data set is described as follows: LC/MS quantification of FPP formed. Particulars: IPP 50 μM constant, 35 mM Tris-HCl pH 7.5, 10 mM MgCl2, 4 mM DTT, 30 °C. The class given is biochemical, Sundstroemia setigera.

B1: RsFPPS (Sundstroemia setigera) (protein)
chain: VSSLPPIIAGAAIYRLVSSKTLPDLTSAFFELEIPDQISLLSLLFASVFSAVSISGFIAPPGHNDDDDEDEHKPPFQYPLKEIASKTTDKEKFLSVYPCLRDSIAEYFATKHEMVPEGVNWITEMIDYSCVGGKMNRGITVLTVARTLSGSSGLTPREEARASVVGWGIEFLQAFFLVADDLMDDSKTRRGQPCWYLLPKVGTIAVNDSFLLESFVFTFLKEHFGKEPYYIKLVELFLETIQQTECGQLLDLTSQPKDAKTADLSRFTIERYRKIVKYKTAFYSFYLPVASAMLMSGVTNSKSFKTARNICCIMGEYFQIQDDVLDCYGTPEVIGKVGTDIQDNKCSWLIVQALDRATPEQRKVIEENYGKWDDAKVAKIKAIYNEMGLKSVFEKYEEDSYAEIQEELKKINDIPQEVFTLFLDKIYKRSK
notes: kcat calculated for dimer
For B1, the Km was determined as 21.5 ± 6.7 µM in “purified protein”, 10.6 ± 2.3 µM in data set [1] and 63.0 ± 7.5 µM in data set [2]. For the same protein, the kcat in “purified protein” is 6.192 ± 0.5738 s⁻¹; in data set [1], 5.73 ± 0.3038 s⁻¹; in data set [2], 43.5 ± 2.228 s⁻¹.
